Experimental data taken from FireProtDB (doi:10.1016/j.jmb.2009.07.074).

B1: Cytochrome c', P00149 (parent)
chain: MKLRIATIAGLVVLGSGFAVAQTDVIAQRKAILKQMGEATKPIAAMLKGEAKFDQAVVQKSLAAIADDSKKLPALFPADSKTGGDTAALPKIWEDKAKFDDLFAKLAAAATAAQGTIKDEASLKANIGGVLGNCKSCHDDFRAKKS

Variants of: B1
Conditions: Rhodopseudomonas palustris (strain ATCC BAA-98 / CGA009); pH 6.5; 25 °C; GdnHCl; CD; MES 20 mM; NaCl 40 mM; structure 1A7V; whole UniProt chain shown

Variant	denaturant m value	denaturant midpoint (higher = more stable)	unfolding free energy
MKLRIATIAGLVVLGSGFAVAQTDVIAQRKAILKQMGEATKPIAAMLKGEAKFDQAVVQKSLAAIADDSKKLPALFPADSKTGGDTAALPKIWEDKAKFDDLFAKLAAAATAAQGTIHDEASLKANIGGVLGNCKSCHDDFRAKKS	5.28 kcal/mol/M	1.29 M	6.8 kcal/mol
MKLRIATIAGLVVLGSGFAVAQTDVIAQRKAILKQMGEATKPIAAMLKGEAKFDQAVVQKSLAAIADDSHKLPALFPADSKTGGDTAALPKIWEDKAKFDDLFAKLAAAATAAQGTIKDEASLKANIGGVLGNCKSCHDDFRAKKS	4.66 kcal/mol/M	1.45 M	6.75 kcal/mol
MKLRIATIAGLVVLGSGFAVAQTDVIAQRKAILHQMGEATKPIAAMLKGEAKFDQAVVQKSLAAIADDSKKLPALFPADSKTGGDTAALPKIWEDKAKFDDLFAKLAAAATAAQGTIKDEASLKANIGGVLGNCKSCHDDFRAKKS	4.91 kcal/mol/M	1.66 M	8.17 kcal/mol
MKLRIATIAGLVVLGSGFAVAQTDVIAQRKAILKQMGEATKPIAAMLKGEAKFDQAVVQKSLAAIADDSKKLPALFPAHSKTGGDTAALPKIWEDKAKFDDLFAKLAAAATAAQGTIKDEASLKANIGGVLGNCKSCHDDFRAKKS	4.8 kcal/mol/M	1.4 M	6.72 kcal/mol
MKLRIATIAGLVVLGSGFAVAQTDVIAQRKAILKQMGEATKPIAAMLKGEAHFDQAVVQKSLAAIADDSKKLPALFPADSKTGGDTAALPKIWEDKAKFDDLFAKLAAAATAAQGTIKDEASLKANIGGVLGNCKSCHDDFRAKKS	5.04 kcal/mol/M	1.47 M	7.41 kcal/mol
MKLRIATIAGLVVLGSGFAVAQTDVIAQRKAILKQMGEATKPIAAMLKGEAKFDQAVVQKSLAAIADDSKKLPALFPADSKTGGDTAALPKIWHDKAKFDDLFAKLAAAATAAQGTIKDEASLKANIGGVLGNCKSCHDDFRAKKS	5.08 kcal/mol/M	1.13 M	5.76 kcal/mol
MKLRIATIAGLVVLGSGFAVAQTDVIAQRKAILKQMGEATKPIAAMLKGEAKFDQAVVQKSLAAIADDSKKLPALFPADSKTGGDTHALPKIWEDKAKFDDLFAKLAAAATAAQGTIKDEASLKANIGGVLGNCKSCHDDFRAKKS	4.88 kcal/mol/M	1.39 M	6.79 kcal/mol
MKLRIATIAGLVVLGSGFAVAQTDVIAQRKAILKQMGEATKPIAAMLKGEAKFDQAVVQKSLAAIADDSKKLPALFPADSKTGGDTAALPKIWEDKAKFDDLFAKLAAAATHAQGTIKDEASLKANIGGVLGNCKSCHDDFRAKKS	5.75 kcal/mol/M	1.23 M	7.07 kcal/mol
MKLRIATIAGLVVLGSGFAVAQTDVIAQRKAILKQMGEATKPIAAMLKGEAKFDQAVVQKSLAAIADDSKKLPALFPADSKTGGDTAALPKIWEDKAKFDDLFAHLAAAATAAQGTIKDEASLKANIGGVLGNCKSCHDDFRAKKS	5.32 kcal/mol/M	1.11 M	5.89 kcal/mol
MKLRIATIAGLVVLGSGFAVAQTDVIAQRKAILKQMGEATKPIAAMLKGEAKFDQAVVQKSLAAIADDSKKLPALFPADSKTGGDTAALPKIWEDKAKFDDLFAKLAAAATAAQGTIKDEASLKHNIGGVLGNCKSCHDDFRAKKS	5.59 kcal/mol/M	1.09 M	6.08 kcal/mol
MKLRIATIAGLVVLGSGFAVAQTHVIAQRKAILKQMGEATKPIAAMLKGEAKFDQAVVQKSLAAIADDSKKLPALFPADSKTGGDTAALPKIWEDKAKFDDLFAKLAAAATAAQGTIKDEASLKANIGGVLGNCKSCHDDFRAKKS	5.08 kcal/mol/M	1.46 M	7.41 kcal/mol
